Experimental data as given in paper PMC9492806.

Target: Recombinant human IGF-II R (cation-independent mannose-6-phosphate receptor, CI-MPR) (human) (UniProt P11717)
Assay: SPR

Point of comparison: “cetuximab M6P-glycoform 9 (cetuximab carrying the M6P tetrasaccharide moiety at the Fc glycosylation site) (antibody)”, Kd 70.3 nM. Against it:
- trastuzumab M6P-glycoform 6 (trastuzumab carrying the M6P-Man3GlcNAc2 glycan at the Fc glycosylation site) (antibody) — 10-fold higher, 700 nM
- cetuximab M6P-glycoform 10 (cetuximab carrying the bis-phosphorylated heptasaccharide moiety at the Fc glycosylation site) (antibody) — 2.4-fold lower, 29.6 nM
- trastuzumab M6P-glycoform 3 (trastuzumab carrying the M6P tetrasaccharide moiety at the Fc glycosylation site) (antibody) — 2.5-fold lower, 28.6 nM
- trastuzumab M6P-glycoform 7 (trastuzumab carrying the bis-phosphorylated heptasaccharide moiety at the Fc glycosylation site) (antibody) — 13-fold lower, 5.4 nM
